doi:10.1101/2024.10.28.620575
Values joined by “and” are separate entries in the source; they are usually repeats but may differ in a detail not shown here. Equal values may be shown once. Each block holds one substance with its values, some of them ahead of it.

Tests used:
[1] = target: DM2h^Bla-1-Myc (Arabidopsis thaliana); test: native gel or EMSA
[2] = target: ΔTPDM3^Col-0 (recombinant, 52-515) (Arabidopsis thaliana); test: cryo-EM structure
[3] = target: ΔTPDM3^Col-0 D332R (recombinant) (Arabidopsis thaliana); test: SEC
[4] = target: ΔTPDM3^Col-0 DQ-RR (D332R Q345R double mutant, recombinant) (Arabidopsis thaliana); test: SEC
[5] = target: ΔTPDM3^Col-0 DQN-AAA (D332A Q345A N349A triple mutant, recombinant) (Arabidopsis thaliana); test: SEC
[6] = target: ΔTPDM3^Col-0 Q345R (recombinant) (Arabidopsis thaliana); test: SEC
[7] = target: ΔTPDM3^Col-0 S214A (recombinant) (Arabidopsis thaliana); test: SEC
[8] = target: ΔTPDM3^Hh-0 (recombinant, 52-515) (Arabidopsis thaliana); test: cryo-EM structure
[9] = target: ΔTPDM3^Hh-0 S214A (recombinant) (Arabidopsis thaliana); test: SEC

Substance: DM2h^Bla-1-Myc (receptor)
stoichiometry N [1]: 2 and 4

Substance: ΔTPDM3^Col-0 (recombinant, 52-515) (enzyme)
stoichiometry N [2]: 6

Substance: ΔTPDM3^Col-0 DQ-RR (D332R Q345R double mutant, recombinant) (enzyme)
stoichiometry N [4]: 6

Substance: ΔTPDM3^Col-0 DQN-AAA (D332A Q345A N349A triple mutant, recombinant) (enzyme)
stoichiometry N [5]: 6

Substance: ΔTPDM3^Col-0 Q345R (recombinant) (enzyme)
stoichiometry N [6]: 6

The remaining lines, values ahead:

stoichiometry N [3]: 6
Substance: ΔTPDM3^Col-0 D332R (recombinant) (enzyme)

stoichiometry N [7]: 6
Substance: ΔTPDM3^Col-0 S214A (recombinant) (enzyme)

stoichiometry N [8]: 6
Substance: ΔTPDM3^Hh-0 (recombinant, 52-515) (enzyme)

stoichiometry N [9]: 6
Substance: ΔTPDM3^Hh-0 S214A (recombinant) (enzyme)
